Reference: patent US20210380703A1 (RIGEL PHARMACEUTICALS, published 2021)

Tests used:
[1] = target: T1, Goat anti-Human Kappa; test: ELISA, positive control
T1 construct: Positive control of the ELISA; also called biotinylated goat anti-human kappa light chain
Outline: (§1)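 mAb binding by ELISA; antigens: hu ACVR2A, mu ACVR2A; pos ctrl biotinylated goat anti-hu kappa LC; neg ctrl hu Fc.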

[2] = target: Mouse ACVR2A (mouse, UniProt P27038 20-135, limits assumed); test: ELISA
Outline: as §1

[3] = target: T2, Human ACVR2A (human, UniProt P27037 20-135, limits assumed); test: ELISA
T2 construct: also called activin receptor, type II A
Outline: as §1
Note: test concentration or dose not given here.

T2 sequence (P27037 20-135 limits assumed): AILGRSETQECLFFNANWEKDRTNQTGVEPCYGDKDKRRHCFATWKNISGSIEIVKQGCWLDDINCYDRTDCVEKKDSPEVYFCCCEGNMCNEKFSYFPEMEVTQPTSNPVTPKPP
Sequence of Mouse ACVR2A (P27038 20-135 limits assumed): as the sequence (P27037 20-135 limits assumed) above, with K20R, V73I counted along it

B1: 370_G09 (antibody, V domains shown)
VH: EVQLLESGGGLVQPGGSLRLSCAASGFTFSSYGMNWVRQAPGKGLEWVAGINYNGGYKSYADSVKGRFTISRDNSKNTLYLQMNSLRAEDTAVYYCARSANWHDTALDYWGQGTLVTVSS
VL: DIQMTQSPSSLSASVGDRVTITCRASQSILSYVNWYQQKPGKAPKLVIYAATSRASGVPSRFSGSGSGTDFTLTISSLQPEDFATYYCQQSYESPLTFGGGTKVEIK
optical density [1]: 3.64 OD | optical density [2]: 3.14 OD | optical density [3]: 3.01 OD

B2: 370_G10 (antibody, V domains shown)
VH: EVQLLESGGGLVQPGGSLRLSCAASGFTFSDYGMNWVRQAPGKGLEWVSGINYNSGYTSYADSVKGRFTISRDNSKNTLYLQMNSLRAEDTAVYYCARSANWHDTALDYWGQGTLVTVSS
VL: DIQMTQSPSSLSASVGDRVTITCRASQSISSYLNWYQQKPGKAPKLLIYVVNNRASGVPSRFSGSGSGTDFTLTISSLQPEDFATYYCQQSYENPLTFGGGTKVEIK
optical density [1]: 3.49 OD | optical density [2]: 2.74 OD | optical density [3]: 2.98 OD

B3: 370_G11 (antibody, V domains shown)
VH: EVQLLESGGGLVQPGGSLRLSCAASGFTFSSYSMNWVRQAPGKGLEWVASINYNSGYTSYADSVKGRFTISRDNSKNTLYLQMNSLRAEDTAVYYCARSANWHDTHLDYWGQGTLVTVSS
VL: DIQMTQSPSSLSASVGDRVTITCRASQSIVSYLNWYQQKPGKAPKLVIYAATSRASGVPSRFSGSGSGTDFTLTISSLQPEDFATYYCQQSYSLPLTFGGGTKVEIK
optical density [1]: 3.72 OD | optical density [2]: 3.07 OD | optical density [3]: 2.98 OD

B4: 370_H01 (antibody, V domains shown)
VH: EVQLLESGGGLVQPGGSLRLSCAASGFTFSSYSMNWVRQAPGKGLEWVSGINYNSGYKGYADSVKGRFTISRDNSKNTLYLQMNSLRAEDTAVYYCARSANWHDTALDYWGQGTLVTVSS
VL: DIQMTQSPSSLSASVGDRVTITCRASQSIISYLNWYQQKPGKAPKLLIYAVTSRASGVPSRFSGSGSGTDFTLTISSLQPEDFATYYCQQSYDTPLTFGGGTKVEIK
optical density [1]: 3.65 OD | optical density [2]: 3.18 OD | optical density [3]: 3.31 OD

B5: 370_H09 (antibody, V domains shown)
VH: EVQLLESGGGLVQPGGSLRLSCAASGFTFSSYGMNWVRQAPGKGLEWVANINYNGGYTSYADSVKGRFTISRDNSKNTLYLQMNSLRAEDTAVYYCARSANWHDTALDYWGQGTLVTVSS
VL: DIQMTQSPSSLSASVGDRVTITCRASQSIVSYVNWYQQKPGKAPKLLIYAATSRASGVPSRFSGSGSGTDFTLTISSLQPEDFATYYCQQSYDNPLTFGGGTKVEIK
optical density [1]: 3.54 OD | optical density [2]: 3.28 OD | optical density [3]: 2.95 OD

B6: 371_A03 (antibody, V domains shown)
VH: EVQLLESGGGLVQPGGSLRLSCAASGFTFSDYGMNWVRQAPGKGLEWVANINYNGGYTGYADSVKGRFTISRDNSKNTLYLQMNSLRAEDTAVYYCARSANWHDTALDYWGQGTLVTVSS
VL: DIQMTQSPSSLSASVGDRVTITCRASQSILSYLNWYQQKPGKAPKLVIYATTSRASGVPSRFSGSGSGTDFTLTISSLQPEDFATYYCQQSYESPLTFGGGTKVEIK
optical density [1]: 3.56 OD | optical density [2]: 2.62 OD | optical density [3]: 2.84 OD

B7: 371_A06 (antibody, V domains shown)
VH: EVQLLESGGGLVQPGGSLRLSCAASGFTFSSYGMNWVRQAPGKGLEWVAGINYNGGYTSYADSVKGRFTISRDNSKNTLYLQMNSLRAEDTAVYYCARSANWHDTALDYWGQGTLVTVSS
VL: DIQMTQSPSSLSASVGDRVTITCRASQSILTYLNWYQQKPGKAPKLVIYAATSRHSGVPSRFSGSGSGTDFTLTISSLQPEDFATYYCQQSYDSPLTFGGGTKVEIK
optical density [1]: 3.51 OD | optical density [2]: 2.79 OD | optical density [3]: 2.65 OD

B8: 371_A07 (antibody, V domains shown)
VH: EVQLLESGGGLVQPGGSLRLSCAASGFTFSDYSMNWVRQAPGKGLEWVSNINYNGGYKSYADSVKGRFTISRDNSKNTLYLQMNSLRAEDTAVYYCARSANWHDTALDYWGQGTLVTVSS
VL: DIQMTQSPSSLSASVGDRVTITCRASQSILSYLNWYQQKPGKAPKLVIYATTSRASGVPSRFSGSGSGTDFTLTISSLQPEDFATYYCQQSYDLPLTFGGGTKVEIK
optical density [1]: 3.65 OD | optical density [2]: 3.06 OD | optical density [3]: 2.88 OD

B9: 371_A08 (antibody, V domains shown)
VH: EVQLLESGGGLVQPGGSLRLSCAASGFTFSSYGMHWVRQAPGKGLEWVSSINYNGGYTSYADSVKGRFTISRDNSKNTLYLQMNSLRAEDTAVYYCARSANWHDTALDYWGQGTLVTVSS
VL: DIQMTQSPSSLSASVGDRVTITCRASQSILSYLNWYQQKPGKAPKLVIYAATSRASGVPSRFSGSGSGTDFTLTISSLQPEDFATYYCQQSYELPLTFGGGTKVEIK
optical density [1]: 2.44 OD | optical density [2]: 1.16 OD | optical density [3]: 1.06 OD

B10: 371_A12 (antibody, V domains shown)
VH: EVQLLESGGGLVQPGGSLRLSCAASGFTFDSYSMNWVRQAPGKGLEWVAGINYNSGYTSYADSVKGRFTISRDNSKNTLYLQMNSLRAEDTAVYYCARSANWHDTALDYWGQGTLVTVSS
VL: DIQMTQSPSSLSASVGDRVTITCRASQSILSYVNWYQQKPGKAPKLVIYAATSLASGVPSRFSGSGSGTDFTLTISSLQPEDFATYYCQQSYDTPLTFGGGTKVEIK
optical density [1]: 3.63 OD | optical density [2]: 3.3 OD | optical density [3]: 3.17 OD

B11: 371_B06 (antibody, V domains shown)
VH: EVQLLESGGGLVQPGGSLRLSCAASGFTFDSYSMNWVRQAPGKGLEWVAGINYNGGYKSYADSVKGRFTISRDNSKNTLYLQMNSLRAEDTAVYYCARSANWHDTALDYWGQGTLVTVSS
VL: DIQMTQSPSSLSASVGDRVTITCRASQSILTYVNWYQQKPGKAPKLVIYAATSRHSGVPSRFSGSGSGTDFTLTISSLQPEDFATYYCQQSYNLPLTFGGGTKVEIK
optical density [1]: 3.3 OD | optical density [2]: 2.71 OD | optical density [3]: 2.69 OD

B12: 371_B07 (antibody, V domains shown)
VH: EVQLLESGGGLVQPGGSLRLSCAASGFTFDSYSMNWVRQAPGKGLEWVAGINYNGGYTSYADSVKGRFTISRDNSKNTLYLQMNSLRAEDTAVYYCARSANWHDTALDYWGQGTLVTVSS
VL: DIQMTQSPSSLSASVGDRVTITCRASQSILTYVNWYQQKPGKAPKLLIYAATSRASGVPSRFSGSGSGTDFTLTISSLQPEDFATYYCQQSYELPLTFGGGTKVEIK
optical density [1]: 3.33 OD | optical density [2]: 3.04 OD | optical density [3]: 2.78 OD

B13: 371_C03 (antibody, V domains shown)
VH: EVQLLESGGGLVQPGGSLRLSCAASGFTFSSYSMNWVRQAPGKGLEWVSNINYNGGYKGYADSVKGRFTISRDNSKNTLYLQMNSLRAEDTAVYYCARSANWHDTALDYWGQGTLVTVSS
VL: DIQMTQSPSSLSASVGDRVTITCRASQSILSYLNWYQQKPGKAPKLVIYATTSRASGVPSRFSGSGSGTDFTLTISSLQPEDFATYYCQQSYSTPLTFGGGTKVEIK
optical density [1]: 3.6 OD | optical density [2]: 3.24 OD | optical density [3]: 3.01 OD

B14: 371_D06 (antibody, V domains shown)
VH: EVQLLESGGGLVQPGGSLRLSCAASGFTFDDYSMNWVRQAPGKGLEWVAGINYNGGYTSYADSVKGRFTISRDNSKNTLYLQMNSLRAEDTAVYYCARSANWHDTALDYWGQGTLVTVSS
VL: DIQMTQSPSSLSASVGDRVTITCRASQSIISYVNWYQQKPGKAPKLLIYAATSRASGVPSRFSGSGSGTDFTLTISSLQPEDFATYYCQQSYSTPLTFGGGTKVEIK
optical density [1]: 3.32 OD | optical density [2]: 1.55 OD | optical density [3]: 1.48 OD
